Measurements reported in PMC9772344.

Experiments:
Details in all cases: transfected HeLa cells; n = 3 per group; parent: est. 1.0; read off a plot
[1] = target: stromal-interacting molecule 1 (STIM1) (UniProt Q13586); assay: Co-IP (GLT-1 capture antibody, immunoblot for STIM1, band quantification)
Orai1 = Orai1 (UniProt Q96D31); assay: Co-IP (GLT-1 capture antibody, immunoblot for Orai1, band quantification)
[2] = target: stromal-interacting molecule 1 (STIM1) (UniProt Q13586); assay: Co-IP (STIM1 capture antibody, immunoblot for GLT-1, band quantification)

glutamate transporter GLT-1 (excitatory amino acid transporter 2, EAAT2), WT plasmid, sequence (P43006 whole entry, stated change not applied): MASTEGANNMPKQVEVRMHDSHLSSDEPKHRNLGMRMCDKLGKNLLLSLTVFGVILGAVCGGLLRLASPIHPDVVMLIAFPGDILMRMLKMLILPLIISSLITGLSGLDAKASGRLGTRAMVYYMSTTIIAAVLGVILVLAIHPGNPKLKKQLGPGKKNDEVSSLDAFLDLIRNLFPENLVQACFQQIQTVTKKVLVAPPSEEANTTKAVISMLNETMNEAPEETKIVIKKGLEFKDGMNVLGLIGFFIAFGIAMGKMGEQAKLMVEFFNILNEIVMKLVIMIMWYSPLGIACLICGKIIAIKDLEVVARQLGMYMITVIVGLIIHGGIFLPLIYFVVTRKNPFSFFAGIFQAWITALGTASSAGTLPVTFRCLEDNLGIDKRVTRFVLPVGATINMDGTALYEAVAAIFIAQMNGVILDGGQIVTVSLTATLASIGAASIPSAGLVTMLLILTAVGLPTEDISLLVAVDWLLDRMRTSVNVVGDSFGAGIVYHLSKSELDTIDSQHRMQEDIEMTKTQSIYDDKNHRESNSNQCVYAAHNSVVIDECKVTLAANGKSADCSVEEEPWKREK
stromal-interacting molecule 1 (STIM1), sequence (Q13586 23-685): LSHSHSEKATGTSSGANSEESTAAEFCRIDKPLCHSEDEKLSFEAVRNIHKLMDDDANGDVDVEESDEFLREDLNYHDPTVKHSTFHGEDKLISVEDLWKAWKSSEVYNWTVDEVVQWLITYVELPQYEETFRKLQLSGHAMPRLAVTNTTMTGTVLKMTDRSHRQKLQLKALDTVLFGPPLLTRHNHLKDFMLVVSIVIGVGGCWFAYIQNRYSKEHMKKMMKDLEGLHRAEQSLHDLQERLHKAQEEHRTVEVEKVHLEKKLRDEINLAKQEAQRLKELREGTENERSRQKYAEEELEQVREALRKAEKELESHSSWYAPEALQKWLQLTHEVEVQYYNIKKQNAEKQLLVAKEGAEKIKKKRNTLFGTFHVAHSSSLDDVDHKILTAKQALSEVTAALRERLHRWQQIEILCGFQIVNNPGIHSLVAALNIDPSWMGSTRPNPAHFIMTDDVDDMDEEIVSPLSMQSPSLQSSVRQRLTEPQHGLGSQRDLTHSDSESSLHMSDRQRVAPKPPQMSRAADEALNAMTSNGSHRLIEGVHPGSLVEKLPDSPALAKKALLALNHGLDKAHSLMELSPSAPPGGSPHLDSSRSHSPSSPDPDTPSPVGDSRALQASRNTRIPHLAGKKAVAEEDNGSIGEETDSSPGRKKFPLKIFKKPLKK
Orai1, sequence (Q96D31 whole entry): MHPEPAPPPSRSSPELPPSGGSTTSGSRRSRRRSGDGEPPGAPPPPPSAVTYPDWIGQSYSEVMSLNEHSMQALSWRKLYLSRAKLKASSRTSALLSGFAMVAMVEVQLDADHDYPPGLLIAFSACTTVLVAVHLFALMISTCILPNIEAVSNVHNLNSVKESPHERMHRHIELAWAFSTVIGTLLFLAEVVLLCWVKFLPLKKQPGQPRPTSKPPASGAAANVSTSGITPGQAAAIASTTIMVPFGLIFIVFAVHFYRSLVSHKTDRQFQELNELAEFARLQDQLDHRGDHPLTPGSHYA

response (relative band intensity) [1]: 0.1
response (relative band intensity) (Orai1): 0.15
response (relative band intensity) [2]: 0.1
Substance: glutamate transporter GLT-1 (excitatory amino acid transporter 2, EAAT2), WT plasmid (from UniProt P43006) P289R
